In patent US20220017620A1:

Target: B7-H3 on Hs-700T pancreatic cancer cells (UniProt Q5ZPR3)
Experiment: cell-based ELISA on fixed Hs-700T cells

| EC50 (read off the curve) [µg/mL] | Binder |
| --- | --- |
| 0.03 | P1D1 full-length IgG1 antibody (antibody, V domains shown) VH: QVQLVQSGAEVKKPGESLKISCKGSGYSFTSYWIGWVRQMPGKGLEWMGIIYPGDSDTRYSPSFQGQVTISADKSISTAYLQWSSLKASDTAMYYCARRSVAGLDYWGQGTLVTVSS VL: KTVVTQPPSASGTPGQRVTISCSGSSSNIGSKYVYWYQQLPGTAPRLLIYRNNQRPSGVPDRFSGSKSGTSASLAISGLRSEDESDYYCASWDDRLKGYAFGTGTKVTVL |
| 0.03 | P1G2 full-length IgG1 antibody (antibody, V domains shown) VH: QVQLQQSGAEVKKPGSSVKVSCKASGGTFSSYAISWVRQAPGQGLEWMGRIIPILGIANYAQKFQGRVTITADKSTSTAYMELSSLRSEDTAVYYCAVNYYDSSGYYSDYWGQGTLVTVSS VL: SYELTQPPSASGSPGQSVTISCTGTSSDVGGYNYVSWYQQHPGKAPRLMIYGVSQRPSGVPDRFSGSKSGNTASLTVSGLQAEDEADYYCSSYANNNYVFGTGTKVTVL |
